The target in one assay is human CD20 (human) (UniProt P11836). Description: fixed Ramos cell ELISA, IgG, on-rate format: 5 min IgG step and 5 min second antibody step, goat anti-human IgG-HRP, OD 450.
The target of assay [1] is T1, human CD20 (human, UniProt P11836 1-297).
T1 sequence (looked up): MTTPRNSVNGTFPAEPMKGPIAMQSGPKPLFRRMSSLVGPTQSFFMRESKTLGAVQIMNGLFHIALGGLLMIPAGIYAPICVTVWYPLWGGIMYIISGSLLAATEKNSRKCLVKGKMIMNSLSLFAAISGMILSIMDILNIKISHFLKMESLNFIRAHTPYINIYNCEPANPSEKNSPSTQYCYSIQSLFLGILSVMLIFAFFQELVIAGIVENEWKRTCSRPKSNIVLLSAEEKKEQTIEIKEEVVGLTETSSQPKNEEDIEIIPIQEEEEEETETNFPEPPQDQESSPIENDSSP
Description: cell-based or functional assay.

Assay [2] has as its target T1, human CD20. Description: fixed Ramos cell ELISA, OD 450 nm. (ELISA stands for enzyme-linked immunosorbent assay.)
Assay [3] addresses T1, human CD20. Description: IgG binding to SKW 6.4 cells, KinExA equilibrium software. The procedure:
(§1) SKW 6.4 cells were grown in DMEM media supplemented with 10% FCS and harvested at 5-10×10⁵ cells per ml. […] For human peripheral blood B cells, fresh CD19 positively sorted B cells were obtained from Allcells. These cells were washed two times in PBS with 1% BSA and resuspended at a concentration of 8×10⁷/ml.
(§2) Twelve, 3 fold serial dilutions were then made and 100ul of each dilution placed in a 96 well plate. To each dilution […] of antibody at 100 ng/ml was added and the plate incubated at 37620 C., 5% CO₂ for 4 hours. Each sample was then filtered with a 96 well 1 micron filter (Millipore) to remove the cells and bound antibody. Free antibody in solution was then quantified using an ELISA. Briefly, free IgG was captured in a 96 well plate coated with 1 mg/ml of anti-human kappa antibody (Southern Biotechnology) and detected using an anti-human Fc antibody coupled with HRP (Southern Biotechnology). The plate was developed using Fast TMB substrate (Pierce) and read at 450 nm.
(§3) The Kd of the antibody was then determined using the KinExA equilibrium software for an unknown antigen concentration. The OD450 value for each serial dilution was fitted with an estimated antigen concentration and the actual antibody concentration. The Kd and actual antigen concentration were then calculated.
For orientation: In KinExA the mixture passes briefly over coated beads that capture the unbound partner.

Assay [4] addresses T1, human CD20. As to the kind of experiment: IgG binding to primary human peripheral blood B cells (CD19 sorted), KinExA equilibrium software. The procedure: as §1, §2, §3
Assay [5] concerns the target T1, human CD20. As to the kind of experiment: IgG binding to SKW 6.4 B lymphoma cells, free antibody by ELISA, KinExA equilibrium software. The procedure:
as §1, §2, §3

Assay [6] concerns the target T1, human CD20. Description: IgG binding to SKW 6.4 cells over time, free antibody by ELISA, direct kinetics KinExA software. The procedure:
SKW 6.4 cells were grown in DMEM media supplemented with 10% FCS and harvested at 5-10×10⁵ cells per ml. […] An equal volume of antibody at 100 ng/ml in PBS with 1% BSA at 37620 C. was then added to the cells and the timing for the experiment started. At time intervals from 60 seconds to 10800 seconds a sample of the antibody cell solution was sampled and filtered to remove cells and bound antibody. Free antibody remaining at each time point was then quantified using the ELISA described above.
The kinetics for the antibody cell reaction was calculated using the direct kinetics KinExA software. The OD450 value for each time point was fitted using the previously calculated Kd and antigen concentration and the Kon and Koff for the reaction calculated.

As to “commercial RITUXAN (Oncology Supply Co.) (antibody)”, the EC50 (read off the curve) (commonly the concentration needed to bring the measured effect to its halfway point) with human CD20 (human) worked out at 1 µg/mL.

B1: AME 33 IgG (antibody, V domains shown)
VH: EVQLVQSGAEVKKPGESLKISCKGSGRTFTSYNMHWVRQMPGKGLEWMGAIYPLTGDTSYNQKSKLQVTISADKSISTAYLQWSSLKASDTAMYYCARSTYVGGDWQFDVWGKGTTVTVSS
VL: EIVLTQSPGTLSLSPGERATLSCRASSSVPYIHWYQQKPGQAPRLLIYATSALASGIPDRFSGSGSGTDFTLTISRLEPEDFAVYYCQQWLSNPPTFGQGTKLEIKR
notes: Full IgG; also called AME 33 antibody
As for B1, the “ADCC, Estimated EC50s, ug/ml (Wil-2 cells as target)” value with human CD20 [1] was 0.0063 µg/mL. In addition, the “maximum OD relative to the C2B8 antibody” value in the assay with human CD20 [2] is around 1.5 times. In addition, in the assay with human CD20 [3], the “fold enhancement of Kd compared to the C2B8 antibody” value came to 10 fold. In addition, the Kd (as a rule, the concentration at which binding is half-saturated) in the assay with human CD20 [4] was determined as 0.113 nM. In addition, the Kd with human CD20 [5] stood at 0.097 nM. Moreover, in the assay with human CD20 [6], the koff (usually a measure of how fast the partners let go of each other) amounted to 7.7e-05 s⁻¹ and the kon (usually the rate constant with which the complex forms) is 780000 M⁻¹ s⁻¹.

(Values after patent publication US20050025764A1 (published 2005).)
